First the molecules themselves.
B1: HESX1 (parent)
chain: ENKPSTCSFSIERILGLDQKKDCV
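Note: lentivirally expressed fusions sorted by FACS into six bins by GFP to DsRed ratio, PSI derived from sequencing read proportions per bin multiplied by bin number.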

In this data set the parent is B1. Nature of the data set: protein stability index of a GFP-peptide fusion (GPS, HEK-293T) (PSI 1-6); higher = more stable. The conditions noted are these: c terminus: a fixed tail appended.
On to ENKPSTCSFSIERILGLDNKKDCV, for which the protein stability index stood at 2.64.

Regarding ENKPSTCSFSIERILGLDRKKDCV, the protein stability index was found to be 3.2.

For the variant ENKPSTCSFSIERILGLDAKKDCV, the protein stability index was found to be 2.33.

In the case of ENKPSTCSFSIERILGLDFKKDCV, the protein stability index was found to be 2.12.

Regarding ENKPSTCSFSIERILGLDVKKDCV, the protein stability index came out at 2.71.

In the case of ENKPSTCSFSIERILGLDTKKDCV, the protein stability index turned out to be 2.88.

For ENKPSTCSFSIERILGLDIKKDCV, the protein stability index came out at 2.39.

As to ENKPSTCSFSIERILGLDEKKDCV, the protein stability index was determined as 3.23.

For ENKPSTCSFSIERILGLDYKKDCV, the protein stability index amounted to 1.97.

Take ENKPSTCSFSIERILGLDCKKDCV: the protein stability index amounted to 2.67.

Consider ENKPSTCSFSIERILGLDGKKDCV, for which the protein stability index stood at 3.06.

In the case of ENKPSTCSFSIERILGLDDKKDCV, the protein stability index was 3.34.

ENKPSTCSFSIERILGLDKKKDCV: the protein stability index was 2.94.

As for ENKPSTCSFSIERILGLDPKKDCV, the protein stability index was 3.14.

Regarding ENKPSTCSFSIERIMGLDQKKDCV, the protein stability index stood at 2.12.

ENKPSTCSFSIERIGGLDQKKDCV: the protein stability index amounted to 3.27.

Regarding ENKPSTCSFSIERIIGLDQKKDCV, the protein stability index is 2.96.

With ENKPSTCSFSIERIEGLDQKKDCV, the protein stability index was 4.11.

As to ENKPSTCSFSIERISGLDQKKDCV, the protein stability index turned out to be 3.5.

Consider ENKPSTCSFSIERIYGLDQKKDCV, for which the protein stability index stood at 2.38.

Regarding ENKPSTCSFSIERIKGLDQKKDCV, the protein stability index came to 4.23.

For ENKPSTCSFSIERITGLDQKKDCV, the protein stability index is 4.

ENKPSTCSFSIERIQGLDQKKDCV: the protein stability index was 2.69.

As to ENKPSTCSFSIERIPGLDQKKDCV, the protein stability index is 3.44.

ENKPSTCSFSIERICGLDQKKDCV: the protein stability index was 2.63.

Regarding ENKPSTCSFSIERIFGLDQKKDCV, the protein stability index was 2.53.

Turning to ENKPSTCSFSIERIWGLDQKKDCV, the protein stability index stood at 2.46.

As to ENKPSTCSFSIERIAGLDQKKDCV, the protein stability index was determined as 3.14.

With ENKPSTCSFSIERINGLDQKKDCV, the protein stability index amounted to 3.73.

Consider ENKPSTCSFSIERIVGLDQKKDCV, for which the protein stability index was 4.16.

For ENKPSTCSFSIERIRGLDQKKDCV, the protein stability index worked out at 3.61.

On to ENKPSTCSFSIERIHGLDQKKDCV, for which the protein stability index worked out at 3.13.

Regarding ENKPSTCSFSIERIDGLDQKKDCV, the protein stability index was determined as 4.06.

Take ENKPSTCSFSIERILGLFQKKDCV: the protein stability index turned out to be 1.85.

Turning to ENKPSTCSFSIERILGLHQKKDCV, the protein stability index is 3.

With ENKPSTCSFSIERILGLKQKKDCV, the protein stability index stood at 2.79.

For the variant ENKPSTCSFSIERILGLAQKKDCV, the protein stability index is 2.94.

ENKPSTCSFSIERILGLSQKKDCV: the protein stability index was 3.13.

With ENKPSTCSFSIERILGLQQKKDCV, the protein stability index stood at 2.89.

As to ENKPSTCSFSIERILGLCQKKDCV, the protein stability index turned out to be 2.85.

Take ENKPSTCSFSIERILGLTQKKDCV: the protein stability index was found to be 2.77.

As for ENKPSTCSFSIERILGLPQKKDCV, the protein stability index came out at 2.71.

With ENKPSTCSFSIERILGLLQKKDCV, the protein stability index came to 2.12.

As for ENKPSTCSFSIERILGLWQKKDCV, the protein stability index was found to be 2.32.

ENKPSTCSFSIERILGLMQKKDCV: the protein stability index amounted to 2.23.

On to ENKPSTCSFSIERILGLEQKKDCV, for which the protein stability index came to 3.4.

As for ENKPSTCSFSIERILGLRQKKDCV, the protein stability index is 2.76.

For ENKPSTCSFSIERILGLYQKKDCV, the protein stability index turned out to be 2.14.

Take ENKPSTCSFSIERILGLNQKKDCV: the protein stability index turned out to be 2.62.

As to ENKPSTCSFSIERILGLGQKKDCV, the protein stability index worked out at 2.55.

As for ENKPSTCSFSIERILGLIQKKDCV, the protein stability index came to 1.74.

With ENKPSTCSFSIERILGLVQKKDCV, the protein stability index was determined as 1.8.

Regarding ENKPSTCSFSIERVLGLDQKKDCV, the protein stability index turned out to be 3.39.

For the variant ENKPSTCSFSIERALGLDQKKDCV, the protein stability index turned out to be 4.54.

As to ENKPSTCSFSIERPLGLDQKKDCV, the protein stability index is 4.34.

With ENKPSTCSFSIERLLGLDQKKDCV, the protein stability index came out at 3.11.

In the case of ENKPSTCSFSIERQLGLDQKKDCV, the protein stability index was found to be 4.12.

For ENKPSTCSFSIERCLGLDQKKDCV, the protein stability index was determined as 3.97.

Take ENKPSTCSFSIERYLGLDQKKDCV: the protein stability index was 3.75.

As for ENKPSTCSFSIERGLGLDQKKDCV, the protein stability index amounted to 4.09.

ENKPSTCSFSIERSLGLDQKKDCV: the protein stability index is 4.52.

Turning to ENKPSTCSFSIERTLGLDQKKDCV, the protein stability index came to 4.16.

For the variant ENKPSTCSFSIERNLGLDQKKDCV, the protein stability index came out at 3.83.

Turning to ENKPSTCSFSIERMLGLDQKKDCV, the protein stability index turned out to be 3.15.

Consider ENKPSTCSFSIERRLGLDQKKDCV, for which the protein stability index was found to be 3.97.

As for ENKPSTCSFSIERKLGLDQKKDCV, the protein stability index stood at 4.31.

For ENKPSTCSFSIERFLGLDQKKDCV, the protein stability index was 3.8.

On to ENKPSTCSFSIERELGLDQKKDCV, for which the protein stability index came out at 4.88.

With ENKPSTCSFSIERDLGLDQKKDCV, the protein stability index amounted to 4.11.

As to ENKPSTCSFSIERWLGLDQKKDCV, the protein stability index came to 3.38.

Consider ENKPSTCSFSIERHLGLDQKKDCV, for which the protein stability index is 4.1.

With ENKPSTCSFSIERILPLDQKKDCV, the protein stability index turned out to be 3.75.

Consider ENKPSTCSFSIERILRLDQKKDCV, for which the protein stability index was 2.23.

For ENKPSTCSFSIERILTLDQKKDCV, the protein stability index is 3.69.

As for ENKPSTCSFSIERILALDQKKDCV, the protein stability index stood at 3.2.

For the variant ENKPSTCSFSIERILKLDQKKDCV, the protein stability index turned out to be 2.9.

As for ENKPSTCSFSIERILFLDQKKDCV, the protein stability index stood at 2.49.

Regarding ENKPSTCSFSIERILMLDQKKDCV, the protein stability index stood at 2.92.

Turning to ENKPSTCSFSIERILWLDQKKDCV, the protein stability index came out at 2.32.

In the case of ENKPSTCSFSIERILQLDQKKDCV, the protein stability index was determined as 3.76.

Turning to ENKPSTCSFSIERILYLDQKKDCV, the protein stability index was 2.28.

Turning to ENKPSTCSFSIERILNLDQKKDCV, the protein stability index amounted to 3.41.

As to ENKPSTCSFSIERILVLDQKKDCV, the protein stability index worked out at 3.15.

As for ENKPSTCSFSIERILDLDQKKDCV, the protein stability index turned out to be 3.74.

As to ENKPSTCSFSIERILSLDQKKDCV, the protein stability index stood at 3.28.

Regarding ENKPSTCSFSIERILILDQKKDCV, the protein stability index is 2.63.

Turning to ENKPSTCSFSIERILCLDQKKDCV, the protein stability index came to 2.83.

On to ENKPSTCSFSIERILLLDQKKDCV, for which the protein stability index was found to be 2.43.

Take ENKPSTCSFSIERILHLDQKKDCV: the protein stability index was 2.83.

Regarding ENKPSTCSFSIERILELDQKKDCV, the protein stability index turned out to be 3.27.

Turning to ENKPSTCSFSIERILGLDQKKACV, the protein stability index turned out to be 2.51.

ENKPSTCSFSIERILGLDQKKECV: the protein stability index worked out at 3.24.

For the variant ENKPSTCSFSIERILGLDQKKCCV, the protein stability index turned out to be 2.12.

As for ENKPSTCSFSIERILGLDQKKFCV, the protein stability index came to 2.1.

Values taken from the supplement of paper PMC10567573.
